The values below come from IntAct's records for PubMed 29892012.

B1: Zinc finger protein 786 (Homo sapiens), Q8N393 (parent)
chain: MAEPPRLPLTFEDVAIYFSEQEWQDLEAWQKELYKHVMRSNYETLVSLDDGLPKPELISWIEHGGEPFRKWRESQKSGNIICSSVDMHFDPGFEEQLFWGSQQAMNSGKTKSHFQLDPESQCSFGSFVSFRPDQGITLGSPQRHDARAPPPLACGPSESTLKEGIPGPRNLDLPGLWDVPAWESTQHPWPVCGESCWENNHLVMHQRGHSKDRTRRAWEKFNKRAETQMPWSSPRVQRHFRCGVCGKSFRRKLCLLRHLAAHTGRGPFRNADGEMCFRHELTHPSHRLPQQGEKPAQCTPCGKRSLPVDSTQARRCQHSREGPASWREGRGASSSVHSGQKPGSRLPQEGNSHQEGDTEALQHGAEGPCSCSECGERSPMSARLASPCRAHTGEKPFQCAHCTKRFRLRRLLQVHQHAHGGERPFSCRKCGKGFAKQCKLTEHIRVHSGEKPFRCAKCGRNFRQRGQLLRHQRLHTDEKPFQCPECGLSFRLESMLRAHRLRHGGERPFSCSECGRGFTHQCKLREHLRVHSGERPFQCLKCDKRFRLKGILKAHQHTHSKERPFSCGECGKGFTRQSKLTEHLRVHSGERPFQCPECNRSFRLKGQLLSHQRLHTGERPFQCPECDKRYRVKADMKAHQLLHSGEMPFSCECGKGFVKHSKLIEHIRTHTGEKPFQCPKCDKSFRLKAQLLSHQGLHTGERPFHCPECDKNFRERGHMLRHQRIHRPERPFACGDCGKGFIYKSKLAEHIRVHTKSCPAPNELDIKKRLSQLFAMIEADWS
B2: Multifunctional procollagen lysine hydroxylase and glycosyltransferase LH3 (Homo sapiens), O60568 (parent)
chain: MTSSGPGPRFLLLLPLLLPPAASASDRPRGRDPVNPEKLLVITVATAETEGYLRFLRSAEFFNYTVRTLGLGEEWRGGDVARTVGGGQKVRWLKKEMEKYADREDMIIMFVDSYDVILAGSPTELLKKFVQSGSRLLFSAESFCWPEWGLAEQYPEVGTGKRFLNSGGFIGFATTIHQIVRQWKYKDDDDDQLFYTRLYLDPGLREKLSLNLDHKSRIFQNLNGALDEVVLKFDRNRVRIRNVAYDTLPIVVHGNGPTKLQLNYLGNYVPNGWTPEGGCGFCNQDRRTLPGGQPPPRVFLAVFVEQPTPFLPRFLQRLLLLDYPPDRVTLFLHNNEVFHEPHIADSWPQLQDHFSAVKLVGPEEALSPGEARDMAMDLCRQDPECEFYFSLDADAVLTNLQTLRILIEENRKVIAPMLSRHGKLWSNFWGALSPDEYYARSEDYVELVQRKRVGVWNVPYISQAYVIRGDTLRMELPQRDVFSGSDTDPDMAFCKSFRDKGIFLHLSNQHEFGRLLATSRYDTEHLHPDLWQIFDNPVDWKEQYIHENYSRALEGEGIVEQPCPDVYWFPLLSEQMCDELVAEMEHYGQWSGGRHEDSRLAGGYENVPTVDIHMKQVGYEDQWLQLLRTYVGPMTESLFPGYHTKARAVMNFVVRYRPDEQPSLRPHHDSSTFTLNVALNHKGLDYEGGGCRFLRYDCVISSPRKGWALLHPGRLTHYHEGLPTTWGTRYIMVSFVDP
partner: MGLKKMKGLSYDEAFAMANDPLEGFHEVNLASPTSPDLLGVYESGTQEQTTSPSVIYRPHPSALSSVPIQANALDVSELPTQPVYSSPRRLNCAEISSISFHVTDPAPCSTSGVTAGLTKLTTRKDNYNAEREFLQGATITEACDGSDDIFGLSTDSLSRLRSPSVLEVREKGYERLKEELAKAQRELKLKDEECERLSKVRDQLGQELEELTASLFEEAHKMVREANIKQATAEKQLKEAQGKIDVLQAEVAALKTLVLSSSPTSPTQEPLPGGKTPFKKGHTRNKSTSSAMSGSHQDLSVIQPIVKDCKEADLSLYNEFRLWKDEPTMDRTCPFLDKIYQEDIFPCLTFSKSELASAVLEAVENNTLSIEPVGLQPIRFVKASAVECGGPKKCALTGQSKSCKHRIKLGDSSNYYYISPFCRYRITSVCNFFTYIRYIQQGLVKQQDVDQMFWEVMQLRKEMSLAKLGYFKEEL
B3: Zyxin (Homo sapiens), Q15942 (parent)
chain: MAAPRPSPAISVSVSAPAFYAPQKKFGPVVAPKPKVNPFRPGDSEPPPAPGAQRAQMGRVGEIPPPPPEDFPLPPPPLAGDGDDAEGALGGAFPPPPPPIEESFPPAPLEEEIFPSPPPPPEEEGGPEAPIPPPPQPREKVSSIDLEIDSLSSLLDDMTKNDPFKARVSSGYVPPPVATPFSSKSSTKPAAGGTAPLPPWKSPSSSQPLPQVPAPAQSQTQFHVQPQPQPKPQVQLHVQSQTQPVSLANTQPRGPPASSPAPAPKFSPVTPKFTPVASKFSPGAPGGSGSQPNQKLGHPEALSAGTGSPQPPSFTYAQQREKPRVQEKQHPVPPPAQNQNQVRSPGAPGPLTLKEVEELEQLTQQLMQDMEHPQRQNVAVNELCGRCHQPLARAQPAVRALGQLFHIACFTCHQCAQQLQGQQFYSLEGAPYCEGCYTDTLEKCNTCGEPITDRMLRATGKAYHPHCFTCVVCARPLEGTSFIVDQANRPHCVPDYHKQYAPRCSVCSEPIMPEPGRDETVRVVALDKNFHMKCYKCEDCGKPLSIEADDNGCFPLDGHVLCRKCHTARAQT
partner: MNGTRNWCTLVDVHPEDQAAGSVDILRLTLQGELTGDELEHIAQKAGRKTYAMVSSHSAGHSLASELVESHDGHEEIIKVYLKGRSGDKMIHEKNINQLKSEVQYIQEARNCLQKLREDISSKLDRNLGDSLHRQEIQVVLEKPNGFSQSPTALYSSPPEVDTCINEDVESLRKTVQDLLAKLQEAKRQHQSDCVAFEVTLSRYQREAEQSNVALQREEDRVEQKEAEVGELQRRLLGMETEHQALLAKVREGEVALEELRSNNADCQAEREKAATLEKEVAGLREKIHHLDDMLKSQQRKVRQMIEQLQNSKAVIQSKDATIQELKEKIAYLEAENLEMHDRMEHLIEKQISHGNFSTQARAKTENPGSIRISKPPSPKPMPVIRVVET
B4: Cell division cycle-associated 7-like protein (Homo sapiens), Q96GN5 (parent)
chain: MELATRYQIPKEVADIFNAPSDDEEFVGFRDDVPMETLSSEESCDSFDSLESGKQQDVRFHSKYFTEELRRIFIEDTDSETEDFAGFTQSDLNGKTNPEVMVVESDLSDDGKASLVSEEEEDEEEDKATPRRSRSRRSSIGLRVAFQFPTKKLANKPDKNSSSEQLFSSARLQNEKKTILERKKDCRQVIQREDSTSESEDDSRDESQESSDALLKRTMNIKENKAMLAQLLAELNSMPDFFPVRTPTSASRKKTVRRAFSEGQITRRMNPTRSARPPEKFALENFTVSAAKFAEEFYSFRRRKTIGGKCREYRRRHRISSFRPVEDITEEDLENVAITVRDKIYDKVLGNTCHQCRQKTIDTKTVCRNQGCCGVRGQFCGPCLRNRYGEDVRSALLDPDWVCPPCRGICNCSYCRKRDGRCATGILIHLAKFYGYDNVKEYLESLQKELVEDN
partner: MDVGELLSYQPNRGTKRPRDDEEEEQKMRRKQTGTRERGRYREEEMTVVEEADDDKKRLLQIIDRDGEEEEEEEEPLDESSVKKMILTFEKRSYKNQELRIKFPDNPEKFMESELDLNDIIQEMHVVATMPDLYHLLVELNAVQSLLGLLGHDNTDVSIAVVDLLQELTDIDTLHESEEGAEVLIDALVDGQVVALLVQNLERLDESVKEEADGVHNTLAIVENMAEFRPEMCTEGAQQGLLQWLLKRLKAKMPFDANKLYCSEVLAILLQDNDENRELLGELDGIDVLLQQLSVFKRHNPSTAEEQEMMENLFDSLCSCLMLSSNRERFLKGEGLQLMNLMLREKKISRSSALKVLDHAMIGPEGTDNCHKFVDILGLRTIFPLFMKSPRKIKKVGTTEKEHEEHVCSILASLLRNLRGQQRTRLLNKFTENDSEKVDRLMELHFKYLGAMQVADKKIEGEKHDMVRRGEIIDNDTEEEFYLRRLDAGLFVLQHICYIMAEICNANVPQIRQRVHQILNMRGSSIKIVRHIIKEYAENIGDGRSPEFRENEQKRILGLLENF

Variants of B1 are the subject of one assay. Particulars: with kr103_human KRTAP10-3, P60369.
kr103_human KRTAP10-3, P60369, sequence (P60369 whole entry): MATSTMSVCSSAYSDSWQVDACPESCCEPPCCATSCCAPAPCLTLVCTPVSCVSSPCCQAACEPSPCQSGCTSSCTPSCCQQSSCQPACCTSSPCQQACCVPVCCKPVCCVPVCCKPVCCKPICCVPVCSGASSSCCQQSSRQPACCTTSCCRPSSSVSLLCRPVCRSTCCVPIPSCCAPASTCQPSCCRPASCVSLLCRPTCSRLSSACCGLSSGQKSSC
Turning to V37A, the “effect of a mutation on the interaction” value was “with no effect”.

In a further assay the parent is B2. Particulars: with rab3i_human RAB3IP.
Consider R235Q, for which the “effect of a mutation on the interaction” value is “with no effect”.

Variants of B3 are the subject of the next assay. Particulars: with tuft1_human TUFT1, Q9NNX1.
MAAPRPSPAISVSVSAPAFYAPQKKFGPVVAPKPKVNPFRPGDSEPPPAPGAQRAQMGRVGEIPPPPPEDFPLPPPPLAGDGDDAEGALGGAFPPPPPPIEESFPPAPLEEEIFPSPPPPPEEEGGPEAPIPPPPQPREKVSSIDLEIDSLSSLLDDMTKNDPFKAGVSSGYVPPPVATPFSSKSSTKPAAGGTAPLPPWKSPSSSQPLPQVPAPAQSQTQFHVQPQPQPKPQVQLHVQSQTQPVSLANTQPRGPPASSPAPAPKFSPVTPKFTPVASKFSPGAPGGSGSQPNQKLGHPEALSAGTGSPQPPSFTYAQQREKPRVQEKQHPVPPPAQNQNQVRSPGAPGPLTLKEVEELEQLTQQLMQDMEHPQRQNVAVNELCGRCHQPLARAQPAVRALGQLFHIACFTCHQCAQQLQGQQFYSLEGAPYCEGCYTDTLEKCNTCGEPITDRMLRATGKAYHPHCFTCVVCARPLEGTSFIVDQANRPHCVPDYHKQYAPRCSVCSEPIMPEPGRDETVRVVALDKNFHMKCYKCEDCGKPLSIEADDNGCFPLDGHVLCRKCHTARAQT [R167G]: the “effect of a mutation on the interaction” value is on record as “with no effect”.

Another assay covers variants of B4. Particulars: with ctbl1_human CTNNBL1, Q8WYA6.
Consider MELATRYQIPKEVADIFNAPSDDEEFVGFRDDVPMETLSSEESCDSFDSLESGKQQDVRFHSKYFTEELRRIFIEDTDSETEDFAGFTQSDLNGKTNPEVMVVESDLSDDGKASLVSEEEEDEEEDKATPRRSRSRRSSIGLRVAFQFPTKKLANKPDKNSSSEQLFSSARLQNEKKTILERKKDCRQVIQREDSTSESEDDSRDESQESSDALLKRTMNIKENKAMLAQLLAELNSMPDFFPVRTPTSASRKKTVRRAFSEGQITRHMNPTRSARPPEKFALENFTVSAAKFAEEFYSFRRRKTIGGKCREYRRRHRISSFRPVEDITEEDLENVAITVRDKIYDKVLGNTCHQCRQKTIDTKTVCRNQGCCGVRGQFCGPCLRNRYGEDVRSALLDPDWVCPPCRGICNCSYCRKRDGRCATGILIHLAKFYGYDNVKEYLESLQKELVEDN [R268H], for which the “effect of a mutation on the interaction” value is listed as “with no effect”.
